Measurements reported in the nanobody polyreactivity screen of Harvey et al. (2022).

Test: yeast display, Sf9 membrane polyspecificity reagent, FACS + sequencing; frameworks hold sequencing errors
How it was run: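 Synthetic nanobody libraries on Saccharomyces cerevisiae BJ5465 were galactose-induced for 36–48 hours, stained 1 hour at 4 °C with 10% biotinylated, detergent-solubilized Sf9 membrane reagent and enriched on streptavidin microbeads. FACS then separated cells into low and high (top ~1%) gates by anti-HA (expression) and streptavidin (reagent binding) fluorescence. Genes were colony-PCR amplified, MiSeq 2 × 250 sequenced and CDR-length filtered. A clone's polyreactivity label is that of its gate of origin.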

Sequence	polyreactivity (PSR sort gate)
QVQLVESGGGLVQAGGSLRLSCAASGRIFGNYYKVWFRQAPGKERDLVAAISGGGSTYYADSVKGRFTISRDNAKNTVYLQMNSLKPEDTGVYYCAARFLWSVFGRKGGYWGQGTQVTVSS	low polyreactivity
QVQLVESGGGLVQAGGSLRLSCAASGRIFQRYAMGWYRPAPGKERELVAAISSRGGRTFYADSVKGRFTISRDNAMYSVYLQMNSLKPEDSAAYYCAATATVGSVTFDYWGQGTQVSVSS	high polyreactivity
QVQLVESGGGLVQAGGSLRLSCAASGSIFNGYTMGWYRQAPRKERELVAAISSRGGITYYADSVKGRFTISRDNAKNTVYLQMNSLKPEDTAVYYCAKTSGYYQAGSLKYGYWGQGTQVTVSS	high polyreactivity
QVQLVESGGGLVQAGGSLRLSCAASGRIRRYYAMGWYRPAPGKEMELVAVITSSDGSTYYADSVKGRFTISRDNAKTTVYLQMNSLKPEDTAVDYCAAAPLWRLDSWSDPYRRYDYWGQGTQVTVSS	low polyreactivity
QVKRVESGGGLVQAGGSLRLSCAASGSTFYRYAMGWYRQAPGKERELVAAINGRGGRTYYADSVKGRFTISRDNAKNTVYLQMNSLKPEDTAVYYCAARGYAPDTYGYWGQGTQVTVSS	high polyreactivity
QVQLVESGGGLVQAGGSLRLSCAASGSTFTWYAMGWYRQAPGKERELVAAISRGGSTNYADSVKGRFTISRDNAKNTVYLQMNSLKPEDTAVYYCAAESYWRDDYWGQGTQVTVSS	low polyreactivity
QVQLEESGGGLVQAGGSLRLSCAASGFTFSHNAMGWYIQAPGKERELVAAITRDSGSTYYADSVKGRFTISRDNAKNTVYLQMNSLTPEDTAVYYCAADIASGYYWYDYWGQGTQVTVSS	low polyreactivity
QVQLVESGGGLVQAGGSLRLSCAASGITFAYYAMGWYRQAPGKERELVAGISKSGGRTYYADSVKGRFTISRDNAKNTVYVQLNSLKPEYTAVYYCASQDARRIVYDRYYYWGQGTQVTVSS	high polyreactivity
QVQLQESGGGLVQSGGSLRLSCAASGYISSWYPMGWYRHAPGKEREFVATIAPGATTYYADSVKGRFTISRDYAKNTVYLQMNSLKPEDTAVYYCAAGPENNDFYSYWGQGTQVTVSS	low polyreactivity
QFHLVDSGGGLVQAGCSLRLSCAASGFTFNSYAMGWYRQAPGKERELVASITRGGGSTYYADSVKGRFTISRDNAKNTVYLKMNSLKPEDTAVYYCTARVRRRGGSFNYWGQGTQVIVSS	high polyreactivity
QVHHVESGGGLVQAGGSLRLSCAASGSIFWTYAMGWYRQAPGKERELVAAITSGSSTKYADSVKGRFTISRDNAKNTVYLQMYSLKPEDTAVYYCNARSYRGYRGVFLYSGLLGSDYWGQGTQVTVSS	low polyreactivity
QVQLVESGGGLVQAGGSLRLSCAASGSTIYNNAMGWYRQAPGKERELVAAITRTGGRTYYADSVKGRFTITRDNAKNTVYLQMNSLKREDTAVYYCAATYPSGRDLSFDYWGQGTQVTVSS	high polyreactivity
QVQLVESGGGLVQAGGSLRLSCAASGITFTGYAMGWYRQAPGKERELVAAISVSTVSTYYADSVKGRFTISRDNAKNTDYLQMTSLKPEDTAVYYCNADATDSYPEKDEHDSWGQGTQVTVSS	low polyreactivity
QVQLVESGGGLVQAGGSLRLSCAASGFTFTYYAMGWYRQAPGKERELVAVISSAGSTYYADSVKGRFTISRDNAKNTVYLQMNSLKPEDTAVYYCNAVGRYYSSGRYGHWGQGTQVTVSS	high polyreactivity
QVHLVESGGGLVQAGGSLRLSCAASGGTFYYNTMGWYRQAPGKERELVAAITSGTSTNYADSVKGRFTISRDNAKNTVYLQMNSLIPEDTAGYYCAADPDADDPRRGYDYWGQGTQVTVSS	low polyreactivity
QVQLVESGGGLVQAGGSLRLSCAASGRIFGAYARGWYRQAPGKERELVAAITSAGSTHYADSVKGRFTISRDNAKNTVYLQMNSLKPEDTAVYYCAADGIARAYVLFDAYDFLYDYWGQGTQVSVSS	low polyreactivity
QVQLVESGGGLVQAGGSLRLSCAASGITFGAYAMGWYRQAPGKERELVAVITRGADTYYADSVKGRFTISRDNAKNTVYLQMNSLKPEDTAVYYCAAEIDLPYYYGSDDDDYWGQGTQVTVSS	high polyreactivity
QVQLVESGGGLVQAGGSLRLSCAASGSIFGYYAMGWYRQAPGKERELVAAITWNADGTYYADSVKGRFTISRDNAKNTVYLQMNSLKPEDTAVYYCAADQYYQDWGGGYDYWGQGTQVTVSS	low polyreactivity
QVQLVESGGGLVKAGGSLRLSCAASGSIFTRNAMGWYRQAPGKERELVAAIRSRGGSTYYADSVKGRFTISRDNAKNTVYLQMNSLKPEDNAVYYCAKKDNTYIFDYWGQGTQVTVSS	low polyreactivity
QVQLVESGGGLVQAGGSLRLSCAASGITFLTYTMGWYRQAPGKERELVAAISRSGGRTYYADSVKGRFTISRDNAKNTVYLQMNSLKPEDTAVYYCAAVSANQDFDYWGQGTQVTVSS	high polyreactivity
QVQLLESGGGLVQAGGSLRLSCAASGSTFGFYAMGCYRPAPGKERELVAAISKSGDITYYADSVKGRFTNSLDNAKNTVYLQMNSLKPEDTAVYYCADRYGYLDNSIYVYWGQGTQVTVSS	high polyreactivity
